Measured values published in patent US7052908B2, “Androgen receptor coactivators” (University of Rochester, priority 1998, dated 2006).

Columns and labels:
wtAR = target: T1, wtAR (Homo sapiens, UniProt P10275); assay: AR transactivation, transient transfection with MMTV-CAT reporter in DU145 cells
T1 sequence (P10275 1-920): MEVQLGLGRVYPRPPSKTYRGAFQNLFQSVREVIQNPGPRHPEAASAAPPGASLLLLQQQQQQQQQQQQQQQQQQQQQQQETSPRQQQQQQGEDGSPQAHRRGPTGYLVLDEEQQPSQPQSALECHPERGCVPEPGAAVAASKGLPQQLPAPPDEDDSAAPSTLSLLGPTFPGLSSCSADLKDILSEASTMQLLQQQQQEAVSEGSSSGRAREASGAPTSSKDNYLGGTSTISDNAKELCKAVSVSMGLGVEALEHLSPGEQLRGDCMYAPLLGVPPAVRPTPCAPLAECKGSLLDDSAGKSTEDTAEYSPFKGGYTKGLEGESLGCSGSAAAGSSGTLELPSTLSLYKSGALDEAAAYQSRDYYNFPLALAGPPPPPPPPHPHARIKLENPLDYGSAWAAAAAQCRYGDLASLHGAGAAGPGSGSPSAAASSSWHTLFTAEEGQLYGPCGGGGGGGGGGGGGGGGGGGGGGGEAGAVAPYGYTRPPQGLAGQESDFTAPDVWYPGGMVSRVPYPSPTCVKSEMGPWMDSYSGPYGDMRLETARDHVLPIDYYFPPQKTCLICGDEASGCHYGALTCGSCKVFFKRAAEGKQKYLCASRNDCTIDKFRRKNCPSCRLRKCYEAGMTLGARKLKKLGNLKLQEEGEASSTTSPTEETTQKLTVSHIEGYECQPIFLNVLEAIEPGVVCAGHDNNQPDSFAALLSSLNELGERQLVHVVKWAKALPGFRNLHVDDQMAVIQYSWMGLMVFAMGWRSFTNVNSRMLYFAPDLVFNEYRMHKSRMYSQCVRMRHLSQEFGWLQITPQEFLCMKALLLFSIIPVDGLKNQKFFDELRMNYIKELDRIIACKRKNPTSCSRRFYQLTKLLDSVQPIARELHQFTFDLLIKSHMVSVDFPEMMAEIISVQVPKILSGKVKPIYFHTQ

mARt877s = assay: AR transactivation, transient transfection CAT reporter assay, mutant AR; type: cell-based, human; details: mARt877s, DHT 10^-11 to 10^-8 M
[1] = target: T2, progesterone receptor (PR) (Homo sapiens, UniProt P06401); assay: Steroid receptor transactivation, MMTV-CAT reporter in DU145 cells; type: cell-based; details: DU145, relative to AR
T2 construct: expressed in transfected cells; host or cells: DU145
T2 sequence (P06401 1-933): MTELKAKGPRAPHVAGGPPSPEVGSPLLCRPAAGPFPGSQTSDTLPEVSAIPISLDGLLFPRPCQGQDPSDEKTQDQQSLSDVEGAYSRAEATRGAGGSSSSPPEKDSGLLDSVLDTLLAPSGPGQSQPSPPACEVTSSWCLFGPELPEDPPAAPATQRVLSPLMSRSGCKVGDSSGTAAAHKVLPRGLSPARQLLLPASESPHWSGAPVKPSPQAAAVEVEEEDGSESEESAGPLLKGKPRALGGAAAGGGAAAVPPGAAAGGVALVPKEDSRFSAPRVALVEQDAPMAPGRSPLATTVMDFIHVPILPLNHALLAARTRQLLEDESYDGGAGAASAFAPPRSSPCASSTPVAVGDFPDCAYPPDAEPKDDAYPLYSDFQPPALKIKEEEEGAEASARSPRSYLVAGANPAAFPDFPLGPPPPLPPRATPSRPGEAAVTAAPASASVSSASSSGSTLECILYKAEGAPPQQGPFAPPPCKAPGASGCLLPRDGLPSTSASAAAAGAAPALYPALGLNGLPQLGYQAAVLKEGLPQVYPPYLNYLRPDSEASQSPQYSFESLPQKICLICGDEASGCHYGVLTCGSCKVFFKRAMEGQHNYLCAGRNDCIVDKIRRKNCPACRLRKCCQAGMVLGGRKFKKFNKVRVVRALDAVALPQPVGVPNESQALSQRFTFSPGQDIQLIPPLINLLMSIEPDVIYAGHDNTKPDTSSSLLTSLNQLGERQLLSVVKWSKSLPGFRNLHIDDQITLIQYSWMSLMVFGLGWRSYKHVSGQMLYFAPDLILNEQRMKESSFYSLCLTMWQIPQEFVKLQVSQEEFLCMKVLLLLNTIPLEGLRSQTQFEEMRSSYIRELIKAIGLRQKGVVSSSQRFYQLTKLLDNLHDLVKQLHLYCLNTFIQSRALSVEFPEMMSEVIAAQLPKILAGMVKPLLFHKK

AR = target: T3, AR (Homo sapiens, UniProt P10275); assay: AR transcriptional activity (MMTV-CAT) in PC3 cells
T3 sequence (P10275 1-920): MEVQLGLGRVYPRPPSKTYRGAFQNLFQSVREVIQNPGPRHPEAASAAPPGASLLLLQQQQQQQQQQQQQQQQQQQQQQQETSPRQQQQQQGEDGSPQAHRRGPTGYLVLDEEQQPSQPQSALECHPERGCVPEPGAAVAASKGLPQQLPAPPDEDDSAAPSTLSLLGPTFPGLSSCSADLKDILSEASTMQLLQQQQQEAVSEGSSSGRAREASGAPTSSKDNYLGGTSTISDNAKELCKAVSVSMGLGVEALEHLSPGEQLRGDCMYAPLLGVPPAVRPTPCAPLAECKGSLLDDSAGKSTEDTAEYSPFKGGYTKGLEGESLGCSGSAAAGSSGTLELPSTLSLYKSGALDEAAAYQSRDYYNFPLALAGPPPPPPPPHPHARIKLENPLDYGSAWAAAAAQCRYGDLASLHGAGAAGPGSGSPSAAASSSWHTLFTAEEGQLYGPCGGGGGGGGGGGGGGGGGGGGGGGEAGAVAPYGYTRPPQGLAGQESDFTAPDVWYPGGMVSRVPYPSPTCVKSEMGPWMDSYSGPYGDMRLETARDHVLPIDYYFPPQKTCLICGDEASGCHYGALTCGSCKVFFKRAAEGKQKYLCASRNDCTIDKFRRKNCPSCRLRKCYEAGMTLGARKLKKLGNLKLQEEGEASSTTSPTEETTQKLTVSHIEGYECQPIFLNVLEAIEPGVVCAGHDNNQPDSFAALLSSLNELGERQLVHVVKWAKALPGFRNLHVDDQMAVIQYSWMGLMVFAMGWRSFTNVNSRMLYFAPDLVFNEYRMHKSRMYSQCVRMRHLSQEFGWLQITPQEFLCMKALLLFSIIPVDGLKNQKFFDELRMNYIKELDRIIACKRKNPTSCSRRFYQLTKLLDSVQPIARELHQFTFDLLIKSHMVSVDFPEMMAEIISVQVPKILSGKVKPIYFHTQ

B1: ARA55: androgen receptor coactivator, 444 aa, SEQ ID NO:4, 91% homology with mouse hic5 (protein)
chain: MPRSGAPKERPAEPLTPPPSYGHQPTGQSGESSGASGDKDHLYSTVCKPRSPKPAAPAAPPFSSSSGVLGTGLCELDRLLQELNATQFNITDEIMSQFPSSKVASGEQKEDQSEDKKRPSLPSSPSPGLPKASATSATLELDRLMASLPDFRVQNHLPASGPTQPPVVSSTNEGSPSPPEPTAKGSLDTMLGLLQSDLSRRGVPTQAKGLCGSCNKPIAGQVVTALGRAWHPEHFVCGGCSTALGGSSFFEKDGAPFCPECYFERFSPRCGFCNQPIRHKMVTALGTHWHPEHFCCVSCGEPFGDEGFHEREGRPYCRRDFLQLFAPRCQGCQGPILDNYISALSLLWHPDCFVCRECFAPFSGGSFFEHEGRPLCENHFHARRGSLCPTCGLPVTGRCVSALGRRFHPDHFACTFCLRPLTKGSFQERAGKPYCQPCFLKLFG
modifications: Homo sapien
- AR transcriptional activity induction with ARA55 cotransfected (wtAR; 10 nM DHT plus ARA55, DU145): 22.8 fold
- further increase of the DHT induction of AR transcriptional activity by ARA55 (wtAR; 10 nM DHT, dose-dependent, plateau at AR:ARA55 1:4.5, DU145): 5.3 fold
- enhancement of transactivation by ARA55 (wtAR; wtAR, DHT 10^-11 to 10^-8 M): 4–8 fold
- enhancement of transactivation by ARA55 (mARt877s): 4–8 fold
- enhancement of PR transcriptional activation by ARA55 [1]: to a lesser degree
- increase of AR transcriptional activity on transfection with exogenous ARA55 (AR): 4 fold
